B1: PRO2206 (bispecific antibody, human IgG4 S228P, kappa)
light: DIQMTQSPSSLSARVGDRVTITCQASEDIESYLAWYQQKPGKAPKLLIYRASTLAYGVPSRFSGSGSGRDFTLTISSLQPEDFATYYCLGSSYSTGSNIFGQGTKVEIKRTVAAPSVFIFPPSDEQLKSGTASVVCLLNNFYPREAKVQWKVDNALQSGNSQESVTEQDSKDSTYSLSSTLTLSKADYEKHKVYACEVTHQGLSSPVTKSFNRGECGGGGSGGGGSAFQLTQSPSSLSASVGDRVTITCQASQSIDSWLAWYQQKPGKPPKLLIYQASKLASGVPSRFSGSGSGTDYTLTISSLQPEDFATYYCQTYYGGGHIGWGFGTGTKVTVLGGGGGSGGGGSGGGGSGGGGSQSQLVESGGGRVQPGGSLRLSCAASGFSFSANYWICWVRQAPGKGLEWIVCIYIGSRADTYYAPWAKGRFTISKDNSKNTVYLQMNSLRAEDTATYFCARFSSGIYDLDRFFLWGQGTQVTVSS
heavy: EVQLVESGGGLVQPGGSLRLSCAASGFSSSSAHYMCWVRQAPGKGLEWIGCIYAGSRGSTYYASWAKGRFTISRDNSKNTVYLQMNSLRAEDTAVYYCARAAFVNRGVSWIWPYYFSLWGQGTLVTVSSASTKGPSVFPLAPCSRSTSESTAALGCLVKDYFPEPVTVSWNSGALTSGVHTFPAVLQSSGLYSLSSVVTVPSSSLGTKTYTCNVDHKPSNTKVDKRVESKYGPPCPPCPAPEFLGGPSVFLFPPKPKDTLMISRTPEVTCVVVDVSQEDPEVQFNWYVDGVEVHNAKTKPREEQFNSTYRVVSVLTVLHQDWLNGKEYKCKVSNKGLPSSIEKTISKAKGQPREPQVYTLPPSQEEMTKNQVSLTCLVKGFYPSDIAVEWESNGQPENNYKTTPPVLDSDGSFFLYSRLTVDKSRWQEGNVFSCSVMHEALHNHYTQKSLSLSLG
notes: IgG4 (S228P) Morrison-L, anti-IL-31 scFv on the C-terminus of the light chain; also called Morrison-L; MorrL
B2: PRO2207 (bispecific antibody, human IgG4 S228P, kappa)
light: DIQMTQSPSSLSASVGDRVTITCQASEDIESYLAWYQQKPGKAPKLLIYRASTLAYGVPSRFSGSGSGTDFTLTISSLQPEDFATYYCLGSSYSTGSNIFGQGTKVEIKRTVAAPSVFIFPPSDEQLKSGTASVVCLLNNFYPREAKVQWKVDNALQSGNSQESVTEQDSKDSTYSLSSTLTLSKADYEKHKVYACEVTHQGLSSPVTKSFNRGECGGGGSGGGGSAFQLTQSPSSLSASVGDRVTITCQASQSIDSWLAWYQQKPGKPPKLLIYQASKLASGVPSRFSGSGSGTDYTLTISSLQPEDFATYYCQTYYGGGHIGWGFGTGTKVTVLGGGGGSGGGGSGGGGSGGGGSQSQLVESGGGRVQPGGSLRLSCAASGFSFSANYWICWVRQAPGKGLEWIVCIYIGSRADTYYAPWAKGRFTISKDNSKNTVYLQMNSLRAEDTATYFCARFSSGIYDLDRFFLWGQGTQVTVSS
heavy: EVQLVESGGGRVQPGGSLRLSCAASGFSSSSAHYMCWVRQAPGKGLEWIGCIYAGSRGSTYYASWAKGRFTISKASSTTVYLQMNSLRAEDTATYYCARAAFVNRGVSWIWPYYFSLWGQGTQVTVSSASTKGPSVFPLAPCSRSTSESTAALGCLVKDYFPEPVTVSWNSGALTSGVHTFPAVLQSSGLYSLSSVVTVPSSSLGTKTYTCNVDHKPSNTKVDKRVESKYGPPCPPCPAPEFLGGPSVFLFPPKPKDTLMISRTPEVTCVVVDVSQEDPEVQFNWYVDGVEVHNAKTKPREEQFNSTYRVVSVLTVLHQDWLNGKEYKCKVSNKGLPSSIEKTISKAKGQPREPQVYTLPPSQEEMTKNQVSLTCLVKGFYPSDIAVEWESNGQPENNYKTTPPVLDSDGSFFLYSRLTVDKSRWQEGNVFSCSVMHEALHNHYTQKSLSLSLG
notes: IgG4 (S228P) Morrison-L; also called Morrison-L; MorrL
B3: PRO1900 (scFv, V domains shown)
VH: QSQLVESGGGRVQPGGSLRLSCAASGFSFSANYWICWVRQAPGKGLEWIVCIYIGSRADTYYAPWAKGRFTISKDNSKNTVYLQMNSLRAEDTATYFCARFSSGIYDLDRFFLWGQGTQVTVSS
V domain: AFQLTQSPSSLSASVGDRVTITCQASQSIDSWLAWYQQKPGKPPKLLIYQASKLASGVPSRFSGSGSGTDYTLTISSLQPEDFATYYCQTYYGGGHIGWGFGTGTKVTV
notes: anti-IL-31 scFv; VL entry ends with LCDR3 (no FR4); also called 50-09-D07-sc04
B4: PRO1903 (scFv, V domains shown)
VH: QSQLVESGGGLVQPGGSLRLSCAASGFSFSANYWICWVRQAPGKGLEWIVCIYIGSRADTYYAPWAKGRFTISKDNSKNTVYLQMNSLRAEDTAVYFCARFSSGIYDLDRFFLWGQGTLVTVSS
V domain: AFQLTQSPSSLSASVGDRVTITCQASQSIESWLAWYQQKPGKPPKLLIYQASKLASGVPSRFSGSGSGTDYTLTISSLQPEDFATYYCQTYYGGGHIGWGFGTGTKVTV
notes: anti-IL-31 scFv (VL D32E against sc03); Printed VL entry has no FR4; also called 50-09-D07-sc07

Tests used:
[1] = target: T1, human IL-4R on transfected HEK293T cells (human, UniProt P24394 26-825); assay: flow cytometry, transfected HEK293T cells
T1 construct: whole, on cells; also called human IL-4R-expressing HEK293T cells; not shown: V5 Tag fused to the N-terminus of the expression construct
From the text: (§1) To test binding of the Morrison-H and Morrison-L antibodies PRO2198, PRO2199, PRO2206 and PRO2207 to human or cynomolgus IL-4R-expressing HEK293T cells, HEK293T cells were transfected with human and cynomolgus IL-4R plasmids and mock plasmid using Lipofectamine3000. Binding of an antibody targeting V5 Tag, which is fused to the N-terminus of human and cynomolgus IL-4R expression constructs, would confirm successful expression of both targets and was thus used as a positive control for plasma membranous binding. The Morrison-H molecule PRO2077 was used as negative control for cynomolgus IL-4R binding since this molecule had not shown any cross-reactivity to cynomolgus IL-4R (see section 5.3.).
(§2) 50,000 transfected HEK293T cells per well were seeded in a 96-well plate. 5-fold serial dilutions of the Morrison-H and Morrison-L antibodies PRO2198, PRO2199, PRO2206 and PRO2207 and of the control molecule PRO2077, which is not cross-reactive to cynomolgus IL-4R, were added at concentrations ranging from 5,000 to 0.32 ng/ml to the plates and incubated for 60 min at 4° C. on a shaker. Supernatants were removed and detection reagent was added for flow cytometry analysis. The geometric mean of the APC fluorescence intensity of single cells was calculated.

[2] = target: T2, cynomolgus IL-4R on transfected HEK293T cells (cynomolgus monkey, UniProt A0A2K5V580 33-832); assay: flow cytometry, transfected HEK293T cells
T2 construct: whole, on cells; also called cynomolgus IL-4R-expressing HEK293T cells; not shown: V5 Tag fused to the N-terminus of the expression construct
T2 sequence (A0A2K5V580 entry or part of it): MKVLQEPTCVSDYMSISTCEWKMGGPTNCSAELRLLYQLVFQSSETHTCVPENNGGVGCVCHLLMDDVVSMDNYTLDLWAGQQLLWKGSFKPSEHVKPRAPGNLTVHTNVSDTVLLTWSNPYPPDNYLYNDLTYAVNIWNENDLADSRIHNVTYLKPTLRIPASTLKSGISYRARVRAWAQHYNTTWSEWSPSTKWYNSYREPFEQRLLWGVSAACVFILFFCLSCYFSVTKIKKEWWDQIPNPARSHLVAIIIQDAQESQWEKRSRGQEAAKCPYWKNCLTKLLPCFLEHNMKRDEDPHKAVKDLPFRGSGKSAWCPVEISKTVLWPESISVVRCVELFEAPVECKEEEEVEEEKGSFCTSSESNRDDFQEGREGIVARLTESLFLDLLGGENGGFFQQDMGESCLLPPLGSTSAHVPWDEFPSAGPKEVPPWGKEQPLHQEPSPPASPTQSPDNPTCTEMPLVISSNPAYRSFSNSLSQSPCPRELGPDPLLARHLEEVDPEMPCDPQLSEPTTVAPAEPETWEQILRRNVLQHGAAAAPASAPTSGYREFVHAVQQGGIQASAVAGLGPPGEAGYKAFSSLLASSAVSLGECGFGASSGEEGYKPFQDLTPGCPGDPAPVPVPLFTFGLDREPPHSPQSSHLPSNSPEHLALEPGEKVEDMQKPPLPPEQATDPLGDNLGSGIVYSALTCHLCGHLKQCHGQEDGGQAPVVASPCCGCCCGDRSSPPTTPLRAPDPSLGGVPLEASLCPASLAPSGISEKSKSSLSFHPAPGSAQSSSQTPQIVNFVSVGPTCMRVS
From the text: as §1, §2

[3] = target: T3, recombinant human IL-4R protein (ECD with His Tag, Sino Biological) (human, UniProt P24394 26-232); assay: SPR, Morrison captured via anti-human IgG-Fc, IL-4R ECD-His analyte
T3 construct: extracellular domain; bought; also called human IL-4R ECD; not shown: His Tag
Method: (§3) Binding kinetics (including affinity) of the bispecific Morrison-H (PRO2198, PRO2199) and Morrison-L (PRO2206, PRO2207) molecules to recombinant human IL-4R protein (ECD with His Tag, Sino Biological) were determined by SPR analysis on a T200 device (Biacore, Cytiva). In this SPR experiment, Morrison molecules were captured via an anti-human IgG-Fc antibody (Human Antibody Capture Kit; Biacore, Cytiva) covalently immobilized to a carboxylmethylated dextran surface (CM5 sensorchip; Biacore, Cytiva) and a titration series of human IL-4R ECD was injected as analyte. After each analyte injection cycle, the sensor chip was regenerated (MgCl₂), and new Morrison antibody was subsequently re-captured. […] The apparent dissociation (kd) and association (kₐ) rate constants and the apparent dissociation equilibrium constant (KD) were calculated with the Biacore analysis software (Biacore Evaluation software Version 3.2, Cytiva) using one-to-one Langmuir binding model and quality of the fits was monitored based on Chi2 and U-value, which are measures for the quality of the curve fitting. The binding level was calculated as the maximum stability binding achieved normalized to the theoretical Rmax. Cross-reactivity to cynomolgus monkey IL-4R was measured using the same setup as for the analysis of human IL-4R kinetics, with the difference that recombinant cynomolgus monkey IL-4R (ECD with His-tag, Acro Biosystems) protein was used as analyte instead of human IL-4R.

[4] = target: T4, recombinant cynomolgus monkey IL-4R (ECD with His-tag, Acro Biosystems) (cynomolgus monkey, UniProt A0A2K5V556 26-232); assay: as above
T4 construct: bought; also called cynomolgus IL-4R
T4 sequence (A0A2K5V556 entry or part of it limits assumed): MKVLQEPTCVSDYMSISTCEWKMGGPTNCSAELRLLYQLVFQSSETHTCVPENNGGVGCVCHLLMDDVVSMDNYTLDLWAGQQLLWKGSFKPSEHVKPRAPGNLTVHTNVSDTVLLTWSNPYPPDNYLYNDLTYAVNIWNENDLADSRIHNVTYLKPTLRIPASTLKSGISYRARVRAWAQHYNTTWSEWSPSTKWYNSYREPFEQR
Method: as §3

[5] = target: T5, human IL-4R on cells (HEK-Blue IL-4/IL-13 cells, human PBMC, human whole blood) (human, UniProt P24394 26-825); assay: cell-based or functional assay
[6] = target: T6, recombinant human IL-31 protein (Peprotech) (human, UniProt Q6EBC2 24-164); assay: SPR, Morrison captured on immobilized human IL-4R-Fc, IL-31 analyte, single-cycle
T6 construct: also called hIL-31
T6 sequence (looked up): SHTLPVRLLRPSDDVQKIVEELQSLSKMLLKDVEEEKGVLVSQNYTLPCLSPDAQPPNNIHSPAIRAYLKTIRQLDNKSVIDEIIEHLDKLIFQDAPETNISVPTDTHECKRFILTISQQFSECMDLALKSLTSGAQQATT
Method: (§4) Binding kinetics (including affinity) of the bispecific Morrison-H (PRO2198, PRO2199) and Morrison-L (PRO2206, PRO2207) molecules to recombinant human IL-31 protein (Peprotech) were determined by SPR analysis on a T200 device (Biacore, Cytiva). In this SPR experiment, Morrison antibodies were injected over a carboxylmethylated dextran surface (CM5 sensorchip; Biacore, Cytiva) immobilized with human recombinant IL-4R protein (ECD with Fc Tag, R&D Systems) and a titration series of human IL-31 was injected as analyte. […] The calculation of the kinetics and the apparent dissociation equilibrium constant (KD) as well as the measurement for the quality of curve fitting were done as described above for IL-4R. The binding level was calculated as the maximum stability binding achieved normalized to the theoretical Rmax. Cross-reactivity to cynomolgus monkey IL-31 was measured using the same setup as for the analysis of human IL-31 affinities, with the difference that recombinant cynomolgus monkey IL-31 (ECD with His Tag, Sino Biological) protein was used as analytes instead of human IL-31.
(§5) After having shown a stable capture of Morrison antibodies via recombinant human IL-4R protein, IL-31 was injected as analyte and the kinetics of the binding of IL-31 to captured Morrison molecules were calculated.

[7] = target: T7, recombinant cynomolgus monkey IL-31 (ECD with His Tag, Sino Biological) (cynomolgus monkey); assay: as above
T7 construct: manufactured on demand by Sino Biological; also called cynomolgus IL-31-His; cyno IL-31
Method: as §4, §5

[8] = target: T5, human IL-4R on cells (HEK-Blue …); assay: cell-based or functional assay; remark: listed apart in the source
[9] = target: T6, recombinant human IL-31 protein …; assay: cell-based or functional assay
[10] = target: T5, human IL-4R on cells (HEK-Blue …); assay: cell-based or functional assay; remark: listed apart in the source
human IL-31-His = target: T8, human IL-31-His (human, UniProt Q6EBC2 24-164); assay: SPR, IL-31-His captured, scFv analyte (30 and 10 nM)
T8 construct: captured via an anti-His tag antibody; also called human IL-31 (scFv SPR); not shown: His tag
T8 sequence (looked up): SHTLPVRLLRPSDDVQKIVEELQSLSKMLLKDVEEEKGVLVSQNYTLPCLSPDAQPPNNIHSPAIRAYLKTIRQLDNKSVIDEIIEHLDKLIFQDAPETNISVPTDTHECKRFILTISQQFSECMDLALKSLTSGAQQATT
Method: Affinity of the two humanized scFvs to human and cynomolgus IL-31 was determined by SPR analysis on a T200 device (Biacore, GE Healthcare). Cynomolgus IL-31 was manufactured on demand by Sino Biological since it was not available commercially. Human and cynomolgus IL-31-His was captured via an anti-His tag antibody coupled to a carboxylmethylated dextran surface and the scFvs were injected as analyte. After each analyte injection cycle the sensor chip was regenerated and new antigen was captured. The scFvs were measured using a dose response multi-cycle kinetic assay in a high-throughput mode with two concentrations (30 and 10 nM) diluted in running buffer. Obtained sensorgrams were fitted using a 1:1 binding model.
Affinity of PRO1643 and of the optimized anti-IL-31 scFvs to human IL-31 was determined by SPR analysis on a T200 device (Biacore, GE Healthcare), as described above in section 2.2.2. The scFvs were measured using a dose response multi-cycle kinetic assay in a high-throughput mode with two concentrations (30 and 10 nM) diluted in running buffer. Obtained sensorgrams were fitted using a 1:1 binding model.

Row | Binder | EC50 [1] | EC50 [2] | Kd [3] | koff [3] | kon [3] | Kd [4] | koff [4] | kon [4] | IC50, IL-4-induced CD23 expression, memory B cells [5] | IC50, IL-4-induced CD23 expression, naive B cells [5] | Kd [6] | koff [6] | kon [6] | Kd [7] | koff [7] | kon [7] | IC50 (single analysis), human IL-4-induced signaling, stat-6 reporter gene assay [8] | IC50 (single analysis), human IL-31-induced signaling, IL-31RA/OSMR dimerization assay [9] | IC50 (single analysis), human IL-13-induced signaling, stat-6 reporter gene assay [10] | Kd (human IL-31-His) | also measured
1 | B1 | 0.83 nM | 0.9 nM | 0.0477 nM | 1.95e-05 s⁻¹ | 409000 M⁻¹ s⁻¹ | 0.209 nM | 2.42e-05 s⁻¹ | 116000 M⁻¹ s⁻¹ | 4.34 nM | 1.48 nM | 0.107 nM | 2.36e-05 s⁻¹ | 220000 M⁻¹ s⁻¹ | 0.169 nM | < 1e-05 s⁻¹ | 59300 M⁻¹ s⁻¹ | 0.0118 nM | 0.23 nM | 0.0295 nM | – | IC50, IL-4-induced CD23 expression, monocytes (blood donor 2) [5]: 0.111 nM
2 | B2 | 0.6 nM | 0.65 nM | 0.189 nM | 4.61e-05 s⁻¹ | 244000 M⁻¹ s⁻¹ | 0.011 nM | 2.77e-05 s⁻¹ | 2.53e+06 M⁻¹ s⁻¹ | 1.58 nM | 1.04 nM | 0.152 nM | 2.47e-05 s⁻¹ | 163000 M⁻¹ s⁻¹ | 0.164 nM | < 1e-05 s⁻¹ | 60900 M⁻¹ s⁻¹ | 0.0094 nM | 0.215 nM | 0.0126 nM | – | IC50, IL-4-induced CD23 expression, monocytes (blood donor 3) [5]: ~0.0545 nM
3 | B3 | – | – | – | – | – | – | – | – | – | – | – | – | – | – | – | – | – | – | – | 0.907 nM | koff (human IL-31-His): 0.000599 s⁻¹; kon (human IL-31-His): 661000 M⁻¹ s⁻¹
4 | B4 | – | – | – | – | – | – | – | – | – | – | – | – | – | – | – | – | – | – | – | 1.22 nM | koff (human IL-31-His): 0.000638 s⁻¹; kon (human IL-31-His): 524000 M⁻¹ s⁻¹

Reference: patent publication US20250282879A1 (CILAG GMBH INTERNATIONAL, published 2025)
